Assay results as given in PMC12946505, “RrMYB2 Regulates Drought Stress via RrJMJ12‐Dependent Epigenetic Modification in Rosa rugosa”.

Molecular target: RrJMJ12-C (Rosa rugosa, UniProt A0A2P6P5A5 1371-1493)
Test: EMSA; unlabeled cold probe control; EMSA/Gel-Shift Kit (Beyotime) binding buffer, 30 min at 24 C; salt and pH not stated
Conditions: protein: recombinant; tags: GST (pGEX4T-1); label: biotin; blunt

RrJMJ12-C, sequence (A0A2P6P5A5 entry or part of it): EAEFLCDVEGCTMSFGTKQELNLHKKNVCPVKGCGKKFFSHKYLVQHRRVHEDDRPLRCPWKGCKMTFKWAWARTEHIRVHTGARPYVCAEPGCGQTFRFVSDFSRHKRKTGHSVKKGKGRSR

| Binder | binding result |
| --- | --- |
| Probe5 (dsDNA) DNA 1: TAATTAGGTATCTCTGCTCGAGTTCTTTTG DNA 2: CAAAAGAACTCGAGCAGAGATACCTAATTA | binds |
| Probe3 (dsDNA) DNA 1: GTCTTATTTTTCTCTGTTTTCTTTTTTGGTATT DNA 2: AATACCAAAAAAGAAAACAGAGAAAAATAAGAC | binds |
| Probe1 (dsDNA) DNA 1: CTCTCTCTCTCTCTCTCTCTGTTTGCGCCAAAACA DNA 2: TGTTTTGGCGCAAACAGAGAGAGAGAGAGAGAGAG | binds |
| Probe4 (dsDNA) DNA 1: ATGACCCCCTTTTGCTCTGCTCTGTCTTTCTAGT DNA 2: ACTAGAAAGACAGAGCAGAGCAAAAGGGGGTCAT | binds |
| Probe2 (dsDNA) DNA 1: TTTCTCATGAACCCTCTGCTTTCTCATCTTGGGT DNA 2: ACCCAAGATGAGAAAGCAGAGGGTTCATGAGAAA | binds |
